Three molecules from US11266968B2, “Mineralizing biosurfactant used for nucleating silica” (THE UNIVERSITY OF QUEENSLAND, priority 2013, dated 2022) can be followed below.

The nature of series [1]: Precipitation of silica from TEOS by biosurfactants. Particulars: 400 μM peptide, 25 mM HEPES pH 7.5 and 8.0, 80 mM TEOS, room temperature. The procedure: To test whether biosurfactants SEQ ID NO: 153 and SEQ ID NO: 154 were able to precipitate silica, separate aqueous solutions of SEQ ID NO: 153 and SEQ ID NO: 154 (400 μM) in HEPES buffer (25 mM) at pH 7.5 and 8.0 were prepared and TEOS (80 mM) was added. A solution of each biosurfactant was retained without TEOS as a control. The mixtures were gently stirred at room temperature. A transparent gel-like precipitate formed within a few minutes in those compositions which had TEOS added whereas the control remained a solution. The precipitate was isolated and extensively washed with water and vacuum dried. The precipitate was analyzed by elemental analysis using EDS in conjunction with scanning electron microscopy (SEM, JEOL 6610). […] Excess oxygen, carbon and sulfur also found in the analysis were consistent with entrapped peptide.

Series [2] can be described thus: TEM measurement of nanocapsule silica shell thickness and diameter. Type of series: physicochemical. The method, then:
(§1) The size distribution profile of the nanoemulsions and nanocapsules was determined by dynamic light scattering (DLS, Malvern Zetasizer Nano ZS) and the samples were diluted by a factor of 100 prior to the measurement. The morphology and shell thickness of the nanocapsules were examined by transmission electron microscopy (TEM, JEOL 1010, 100 kV accelerating voltage). Samples (2 μL) were taken directly from the reaction mixtures, deposited onto Formvar-coated copper grids (200 mesh), and left to air-dry prior to examination. Samples were also analyzed for high-resolution (HR) TEM (JEOL 2100, 200 kV accelerating voltage) equipped with an energy dispersive X-ray spectroscopy (EDS) detector. The formation of amorphous silica was verified by selected area electron diffraction (SAED) in HRTEM.
(§2) Each of the dialyzed nanoemulsion compositions from Example 2 at pH 7.5 or 8.0 were divided into a number of separate glass vials. One composition of each peptide nanoemulsion at each pH was retained as a control. To the other compositions, three concentrations of TEOS were added to separate vials, 20 mM, 40 mM and 80 mM, and the compositions were gently stirred for 20 to 50 hours. The compositions were then analyzed by DLS and a size increase consistent with the formation of a thick layer surrounding the oil droplet core in TEOS-containing solutions was observed.
The shell thickness of at least 100 individual nanocapsules were measured by TEM (a dark ring around the perimeter of the bright core). The silica layer formed on SEQ ID NO: 153 and SEQ ID NO: 154 nanoemulsions at pH 7.5 was 22±5 nm and 12±2 nm thick respectively and at pH 8.0, 35±5 nm and 27±6 nm respectively.
SEQ ID NO: 155 was used to facilitate formation and stabilization of nanoemulsions, and subsequently direct nucleation and growth of silica shell encasing the nanoemulsion template. A solution of SEQ ID NO: 155 (115 μM) in HEPES buffer (25 mM, pH 7.5) was mixed with Miglyol® 812 oil (10% v/v) by sonication at 10 W using Branson Sonifier 450 for 4×30 s burst and interspersed with cooling in an ice bath for 60 s. An aliquot of SEQ ID NO: 155 nanoemulsions (400 μL) was transferred to a glass vial and added with TEOS (80 mM). The mixture was then stirred at room temperature for 20 h to form silica shell surrounding the nanoemulsions.

Series [3] in a line: Dynamic light scattering of nanoemulsions and nanocapsules. The note with it: for Number-average diameter (dn) of oil droplets in nanoemulsion / Polydispersity index (PDI) of nanoemulsion: 400 μM peptide, 800 μM ZnCl2, 2% v/v Miglyol 812, HEPES pH 7.0, after sonication; for Increase in number-average diameter of nanoemulsion after dialysis: dialysis 20 hours against HEPES 25 mM, pH 7.5 or 8.0, 10 kDa membrane; for PDI of nanocapsules: 80 mM TEOS, 25 mM HEPES. Type of series: physicochemical. The method, then:
as §1
Separate solutions of SEQ ID NO: 153 (400 μM) and SEQ ID NO: 154 (400 μM) in HEPES buffer (25 mM, pH 7.0) in the presence of ZnCl2 (800 μM) were mixed with Miglyol® 812 (2% v/v) by sonication (Branson Sonifier 450, 10 W, 4×30 s burst and interspersed with cooling in an ice bath for 60 s). After sonication, the compositions were macroscopically identical and homogeneous with cloudy appearance.
The nanoemulsion compositions (1 mL) were dialyzed against HEPES buffer (500 mL, 25 mM, pH 7.5 or 8.0) using a 10 kDa cellulose membrane to adjust pH of each nanoemulsion and to remove residual peptide. After dialysis for 20 hours there was only a slight increase, approximately 5%, in the number-average diameter of nanoemulsions stabilized by either SEQ ID NO: 153 or SEQ ID NO: 154 and the PDIs remained similar. The nanoemulsions were stable to dialysis.
as §2

Where [4] appears, read: pH 7.5, at least 100 nanocapsules by TEM.
The mark [5] stands for this setting: pH 8.0, at least 100 nanocapsules by TEM.
Setting [6] is: pH 7.5, 20 hours silicification.
Where [7] appears, read: pH 8.0, 20 hours silicification.
Where [8] appears, read: 115 μM protein, 10% v/v Miglyol 812, pH 7.5, 80 mM TEOS, 20 h.

For “Ac-MKQLAHSVSRLEHA-RKKRKKRKKRKKGGGY-CONH2 (Ac-MKQLAHSVSRLEHARKKRKKRKKRKKGGGY-NH2) [SEQ ID NO: 154, custom synthesized mineralizing biosurfactant peptide, Mw 3632.4]”, the “Ability to precipitate/nucleate silica” value in series [1] is reported as “can nucleate silica”. Besides, the Silica shell thickness came to 5±1 nm in series [2] (30 hours, 20 mM TEOS, 25 mM HEPES pH 7.5); 10±2 nm in series [2] (30 hours, 40 mM TEOS, 25 mM HEPES pH 7.5); 16±3 nm in series [2] (30 hours, 80 mM TEOS, 25 mM HEPES pH 7.5); 12±2 nm in series [2] (setting [4]); 27±6 nm in series [2] (setting [5]). The “Number-average diameter (dn) of oil droplets in nanoemulsion” value in series [3] is listed as around 40 nm. In addition, the “Polydispersity index (PDI) of nanoemulsion” value in series [3] was 0.293. Also, the “Increase in number-average diameter of nanoemulsion after dialysis” value in series [3] is “approximately 5%”. The PDI of nanocapsules in series [3] (setting [6]) is listed as 0.146; in series [3] (setting [7]), 0.233.
With “Ac-MKQLAHSVSRLEHA-SSKKSGSYGGSKGSKRRIL-NH2 (Ac-MKQLAHSVSRLEHASSKKSGSYGGSKGSKRRIL-NH2) [SEQ ID NO: 153, custom synthesized mineralizing biosurfactant peptide, Mw 3643.2]”, the “Ability to precipitate/nucleate silica” value in series [1] is given as “can nucleate silica”. Besides, the Silica shell thickness in series [2] (setting [4]) is listed as 22±5 nm; in series [2] (setting [5]) it was 35±5 nm. The “Number-average diameter (dn) of oil droplets in nanoemulsion” value in series [3] was around 80 nm. For the same molecule, in series [3], the “Polydispersity index (PDI) of nanoemulsion” value was found to be 0.329. Also, the “Increase in number-average diameter of nanoemulsion after dialysis” value in series [3] is given as “approximately 5%”. Besides, the PDI of nanocapsules in series [3] (setting [6]) came out at 0.242; in series [3] (setting [7]) it was 0.794.

B1: MDPS MKQLADS LHQLARQ VSRLEHA DPS MKQLADS LHQLARQ VSRLEHA DPS MKQLADS LHQLARQ VSRLEHA DPS MKQLADS LHQLARQ VSRLEHA EPS-RKKRKKRKKRKKGGGY (protein)
chain: MDPSMKQLADSLHQLARQVSRLEHADPSMKQLADSLHQLARQVSRLEHADPSMKQLADSLHQLARQVSRLEHADPSMKQLADSLHQLARQVSRLEHAEPSRKKRKKRKKRKKGGGY
notes: recombinant mineralizing biosurfactant protein produced in Escherichia coli
As to B1, in series [2] (setting [8]), the “Outer diameter of nanocapsules” value stood at 249±29 nm and the Silica shell thickness came out at 26±2 nm.
